Kd data for 2 molecules are collected here from paper PMC9054013, “FCHO controls AP2’s initiating role in endocytosis through a PtdIns(4,5)P2-dependent switch” (Science Advances, 2022).

In this test the target is T1, Cμ2 (μ2 residues 160 to 435), P84092.
T1 chain: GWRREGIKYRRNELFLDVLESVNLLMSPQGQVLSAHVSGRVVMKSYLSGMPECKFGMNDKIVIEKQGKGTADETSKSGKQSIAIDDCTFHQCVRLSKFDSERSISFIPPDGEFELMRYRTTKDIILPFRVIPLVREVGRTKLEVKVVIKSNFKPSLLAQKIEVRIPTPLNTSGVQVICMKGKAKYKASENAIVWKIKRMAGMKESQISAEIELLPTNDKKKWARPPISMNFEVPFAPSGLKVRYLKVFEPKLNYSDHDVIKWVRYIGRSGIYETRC
The experiment in a line: ITC. The conditions noted are these: chain shown with the change;; parent: 25 ± 1 µM.

B1: FCHO2-N1+N2 (ITC), Q0JRZ9-1 Y340S (protein)
chain: NIPDVDEEGYSIKPETNQNDTKENHFSSSSDSDSEDEEPKKYRIEIKPMHPNNSHHTMASLDELKVSIGNITLSPAISRHS
The term Kd denotes a measure of binding affinity in units of concentration. Turning to B1, the equilibrium dissociation constant (Kd) was 54 µM. Consider NIPDVDAAGYSIAPETNQNDTKENHFYSSSDSDSEDEEPKKYR [FCHO2-N1+N2 (ITC), Q0JRZ9-1 E320A; E321A; K326A], for which the Kd amounted to 110 µM.
